The results in this text go back to publication PMC12394548 (Nature Communications, 2025).

Holding throughout (conditions): both partners purified
The target in assay [1] is T1, valosin-containing protein (VCP)/p97 (UniProt P55072 1-806, terbium chelate (CoraFluor), non-site-selective labelling, DOL 0.33, in the TR-FRET assays only).
T1 construct: VCP/p97, full length; One molecule for the unlabelled protein (cryo-EM, DUB assay) and the Tb-labelled protein (TR-FRET); Hexamer seen by cryo-EM; also called Tb-VCP; terbium-chelate labeled VCP; source: co-expressed with VCPIP1 for cryo-EM data set 1 (ion exchange omitted)
T1 sequence (P55072 whole entry): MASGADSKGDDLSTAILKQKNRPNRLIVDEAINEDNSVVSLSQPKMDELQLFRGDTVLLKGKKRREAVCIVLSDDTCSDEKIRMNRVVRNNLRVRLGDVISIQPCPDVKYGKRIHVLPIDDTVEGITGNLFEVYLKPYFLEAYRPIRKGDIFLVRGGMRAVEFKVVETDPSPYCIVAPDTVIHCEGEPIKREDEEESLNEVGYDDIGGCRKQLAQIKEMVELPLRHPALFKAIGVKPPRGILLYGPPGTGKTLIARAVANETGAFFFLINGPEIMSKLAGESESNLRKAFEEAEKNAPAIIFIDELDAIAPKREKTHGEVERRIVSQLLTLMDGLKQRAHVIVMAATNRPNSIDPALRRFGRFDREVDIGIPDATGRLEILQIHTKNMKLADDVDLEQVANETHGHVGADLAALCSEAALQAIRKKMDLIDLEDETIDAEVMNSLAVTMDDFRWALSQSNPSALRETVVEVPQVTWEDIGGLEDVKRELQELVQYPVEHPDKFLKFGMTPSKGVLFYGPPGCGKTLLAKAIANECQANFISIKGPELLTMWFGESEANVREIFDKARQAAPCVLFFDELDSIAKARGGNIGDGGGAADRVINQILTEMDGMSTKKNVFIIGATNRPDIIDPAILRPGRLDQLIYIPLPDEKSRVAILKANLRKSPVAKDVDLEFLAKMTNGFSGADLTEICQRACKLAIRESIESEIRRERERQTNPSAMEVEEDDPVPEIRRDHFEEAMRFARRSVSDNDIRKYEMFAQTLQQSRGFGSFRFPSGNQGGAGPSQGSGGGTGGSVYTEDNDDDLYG
In words: FRET or BRET; TR-FRET displacement assay: 10 nM BODIPY-VCPIP1 WT pre-incubated with 10 nM Tb-VCP, serial dilution of unlabelled VCPIP1 WT or p47; TR-FRET buffer, room temperature.

The target in assay [2] is T1, valosin-containing protein (VCP)/p97. The assay can be described thus: FRET or BRET; TR-FRET binding assay of BODIPY-VCPIP1 WT on Tb-VCP, buffer control (no nucleotide added); apparent KD; another protein batch than a3. (Bioluminescence resonance energy transfer reports proximity on the nanometre scale.)
Assay [3] has the same target. The assay can be described thus: FRET or BRET; TR-FRET binding assay of BODIPY-VCPIP1 WT on Tb-VCP with 1 uM ADP; apparent KD.
Assay [4] shares this target. In words: FRET or BRET; TR-FRET binding assay of BODIPY-VCPIP1 WT on Tb-VCP with 1 uM AMP; apparent KD.
Assay [5] has the same target. In words: FRET or BRET; TR-FRET binding assay: Tb-VCP with a serial dilution of BODIPY-labelled VCPIP1 construct; 25 mM HEPES pH 7.4, 150 mM NaCl, 0.1% BSA, 0.05% Tween-20; 1 h at room temperature; apparent KD.
For assay [6] the target is unchanged. The assay can be described thus: FRET or BRET; TR-FRET binding assay of BODIPY-VCPIP1 WT on Tb-VCP with 1 uM ATP; apparent KD.
Assay [7] shares this target. In words: FRET or BRET; TR-FRET binding assay of BODIPY-VCPIP1 WT on Tb-VCP with 1 uM ATPγS; apparent KD.

B1: p47 (natural protein)
chain: MAAERQEALREFVAVTGAEEDRARFFLESAGWDLQIALASFYEDGGDEDIVTISQATPSSVSRGTAPSDNRVTSFRDLIHDQDEDEEEEEGQRFYAGGSERSGQQIVGPPRKKSPNELVDDLFKGAKEHGAVAVERVTKSPGETSKPRPFAGGGYRLGAAPEEESAYVAGEKRQHSSQDVHVVLKLWKSGFSLDNGELRSYQDPSNAQFLESIRRGEVPAELRRLAHGGQVNLDMEDHRDEDFVKPKGAFKAFTGEGQKLGSTAPQVLSTSSPAQQAENEAKASSSILIDESEPTTNIQIRLADGGRLVQKFNHSHRISDIRLFIVDARPAMAATSFILMTTFPNKELADESQTLKEANLLNAVIVQRLT
notes: p47 cloned into pNIC-Bio2 with an N-terminal His-6-TEV tag; printed residue numbers reach V366 (UBX domain); Used unlabelled in the displacement assay and in cryo-EM; also called adapter protein p47; source: E. coli LOBSTR, purified (Ni resin, ion exchange, SEC)
As a reminder, the IC50 is the point on the concentration scale where inhibition reaches its midpoint. A high value points to weaker potency in that assay. As for B1, the IC50 in assay [1] worked out at 20.4 nM.

B2: valosin contain protein p97/p47 interacting protein 1 (VCPIP1), wild type (enzyme, UniProt Q96JH7 1-1222, looked up)
chain: MSQPPPPPPPLPPPPPPPEAPQTPSSLASAAASGGLLKRRDRRILSGSCPDPKCQARLFFPASGSVSIECTECGQRHEQQQLLGVEEVTDPDVVLHNLLRNALLGVTGAPKKNTELVKVMGLSNYHCKLLSPILARYGMDKQTGRAKLLRDMNQGELFDCALLGDRAFLIEPEHVNTVGYGKDRSGSLLYLHDTLEDIKRANKSQECLIPVHVDGDGHCLVHAVSRALVGRELFWHALRENLKQHFQQHLARYQALFHDFIDAAEWEDIINECDPLFVPPEGVPLGLRNIHIFGLANVLHRPIILLDSLSGMRSSGDYSATFLPGLIPAEKCTGKDGHLNKPICIAWSSSGRNHYIPLVGIKGAALPKLPMNLLPKAWGVPQDLIKKYIKLEEDGGCVIGGDRSLQDKYLLRLVAAMEEVFMDKHGIHPSLVADVHQYFYRRTGVIGVQPEEVTAAAKKAVMDNRLHKCLLCGALSELHVPPEWLAPGGKLYNLAKSTHGQLRTDKNYSFPLNNLVCSYDSVKDVLVPDYGMSNLTACNWCHGTSVRKVRGDGSIVYLDGDRTNSRSTGGKCGCGFKHFWDGKEYDNLPEAFPITLEWGGRVVRETVYWFQYESDSSLNSNVYDVAMKLVTKHFPGEFGSEILVQKVVHTILHQTAKKNPDDYTPVNIDGAHAQRVGDVQGQESESQLPTKIILTGQKTKTLHKEELNMSKTERTIQQNITEQASVMQKRKTEKLKQEQKGQPRTVSPSTIRDGPSSAPATPTKAPYSPTTSKEKKIRITTNDGRQSMVTLKSSTTFFELQESIAREFNIPPYLQCIRYGFPPKELMPPQAGMEKEPVPLQHGDRITIEILKSKAEGGQSAAAHSAHTVKQEDIAVTGKLSSKELQEQAEKEMYSLCLLATLMGEDVWSYAKGLPHMFQQGGVFYSIMKKTMGMADGKHCTFPHLPGKTFVYNASEDRLELCVDAAGHFPIGPDVEDLVKEAVSQVRAEATTRSRESSPSHGLLKLGSGGVVKKKSEQLHNVTAFQGKGHSLGTASGNPHLDPRARETSVVRKHNTGTDFSNSSTKTEPSVFTASSSNSELIRIAPGVVTMRDGRQLDPDLVEAQRKKLQEMVSSIQASMDRHLRDQSTEQSPSDLPQRKTEVVSSSAKSGSLQTGLPESFPLTGGTENLNTETTDGCVADALGAAFATRSKAQRGNSVEELEEMDSQDAEMTNTTEPMDHS
modifications: BODIPY, non-site-selective labelling, DOL 0.23, as the labelled partner of the TR-FRET assays; unlabelled in cryo-EM, as competitor in the displacement assay and in the DUB assay
notes: AlphaFold model AF-Q96JH7-F1-v4 used for model building; One molecule for labelled and unlabelled protein; also called VCPIP1^WT; VCIP135; source: co-expressed with VCP for cryo-EM data set 1 (ion exchange omitted)
With B2, the Kd in assay [2] came out at 16.5 nM; in assay [3], 67.6 nM; in assay [4], 16.1 nM; in assay [5], 79.5 nM; in assay [6] it was 68.3 nM; in assay [7] it was 63.9 nM. The IC50 in assay [1] was 74.5 nM.

B3: VCPIP1^ΔVCPID (aa Δ589-666) (enzyme, UniProt Q96JH7 1-1222, looked up)
chain: MSQPPPPPPPLPPPPPPPEAPQTPSSLASAAASGGLLKRRDRRILSGSCPDPKCQARLFFPASGSVSIECTECGQRHEQQQLLGVEEVTDPDVVLHNLLRNALLGVTGAPKKNTELVKVMGLSNYHCKLLSPILARYGMDKQTGRAKLLRDMNQGELFDCALLGDRAFLIEPEHVNTVGYGKDRSGSLLYLHDTLEDIKRANKSQECLIPVHVDGDGHCLVHAVSRALVGRELFWHALRENLKQHFQQHLARYQALFHDFIDAAEWEDIINECDPLFVPPEGVPLGLRNIHIFGLANVLHRPIILLDSLSGMRSSGDYSATFLPGLIPAEKCTGKDGHLNKPICIAWSSSGRNHYIPLVGIKGAALPKLPMNLLPKAWGVPQDLIKKYIKLEEDGGCVIGGDRSLQDKYLLRLVAAMEEVFMDKHGIHPSLVADVHQYFYRRTGVIGVQPEEVTAAAKKAVMDNRLHKCLLCGALSELHVPPEWLAPGGKLYNLAKSTHGQLRTDKNYSFPLNNLVCSYDSVKDVLVPDYGMSNLTACNWCHGTSVRKVRGDGSIVYLDGDRTNSRSTGGKCGCGFKHFWDGKEYDNLNIDGAHAQRVGDVQGQESESQLPTKIILTGQKTKTLHKEELNMSKTERTIQQNITEQASVMQKRKTEKLKQEQKGQPRTVSPSTIRDGPSSAPATPTKAPYSPTTSKEKKIRITTNDGRQSMVTLKSSTTFFELQESIAREFNIPPYLQCIRYGFPPKELMPPQAGMEKEPVPLQHGDRITIEILKSKAEGGQSAAAHSAHTVKQEDIAVTGKLSSKELQEQAEKEMYSLCLLATLMGEDVWSYAKGLPHMFQQGGVFYSIMKKTMGMADGKHCTFPHLPGKTFVYNASEDRLELCVDAAGHFPIGPDVEDLVKEAVSQVRAEATTRSRESSPSHGLLKLGSGGVVKKKSEQLHNVTAFQGKGHSLGTASGNPHLDPRARETSVVRKHNTGTDFSNSSTKTEPSVFTASSSNSELIRIAPGVVTMRDGRQLDPDLVEAQRKKLQEMVSSIQASMDRHLRDQSTEQSPSDLPQRKTEVVSSSAKSGSLQTGLPESFPLTGGTENLNTETTDGCVADALGAAFATRSKAQRGNSVEELEEMDSQDAEMTNTTEPMDHS
modifications: BODIPY, non-site-selective labelling, DOL 0.62, in the TR-FRET binding assay
notes: VCPIP1 full length with the VCPID (aa 589-666) deleted; made from the Strep-VCPIP1 plasmid by PCR; also called VCPID domain truncation
As for B3, the Kd in assay [5] was 67.9 nM.
